Results on four molecules are retold here after PMC9117555 (iScience, 2022).

One data set addresses TrkA-ΔeJTM (rat) (UniProt P35739). The experiment in a line: flow cytometry on cells. In general terms: Flow cytometry measures light scatter and fluorescence of single cells or particles in a stream.
For data set [1], the target named is rat TrkA with an N-terminal HA tag (wild type) (rat, UniProt P35739 33-799). Nature of the data set: flow cytometry on cells.
The data set “solution NMR” concerns the molecule itself. The experiment in a line: solution NMR.
The data set “cross-linking” concerns the molecule itself. Nature of the data set: cross-linking.

In general, Kd refers to the concentration at which binding is half-saturated. Low values mean higher affinity, high ones lower affinity. In turn, “biotinylated NGF (nerve growth factor) (from UniProt P01139 122-241) (ligand)” had a Kd with TrkA-ΔeJTM (rat) of 0.76 µM.

B1: biotinylated NGF (nerve growth factor) (ligand, UniProt P01139 122-241, looked up)
chain: SSTHPVFHMGEFSVCDSVSVWVGDKTTATDIKGKEVTVLAEVNINNSVFRQYFFETKCRASNPVESGCRGIDSKHWNSYCTTTHTFVKALTTDEKQAAWRFIRIDTACVCVLSRKATRRG
modifications: biotin (EZ-Link Sulfo-NHS-Biotin reagent; sites not stated)
B1: in data set [1], binding was characterised by a dissociation constant (Kd) of 0.0044 µM.

B2: TrkA-eJTM-TMD (D380-K447 of human TrkA) (domain or fragment, UniProt P04629 380-447, looked up)
chain: DNPFEFNPEDPIPVSFSPVDTNSTSGDPVEKKDETPFGVSVAVGLAVFACLFLSTLLLVLNKCGRRNK
As usually defined, the stoichiometry N is a count of units in the complex or per binding partner. For the molecule B2, the “stoichiometry N” value in “solution NMR” was 2.

B3: TrkA-eJTM-TMD-K410C (domain or fragment, human, UniProt P04629 380-447, looked up)
chain: DNPFEFNPEDPIPVSFSPVDTNSTSGDPVECKDETPFGVSVAVGLAVFACLFLSTLLLVLNKCGRRNK
modifications: also: disulfide between C410 of two chains in the cross-linked state (dimer)
B3: in “cross-linking”, the “stoichiometry N” value is 2.
